# Measured values: patent publication US9035028B2, “Temperature sensitive conjugate compositions” (Emory University, priority 2010, dated 2015)
# B1: EMP-scFv: fusion of elastin mimetic polypeptide (EMP) and activation-specific GPIIb/IIIa-blocking single-chain antibody; 704 amino acids, approximately 70 kDa (protein)
# chain: MAVPAVGIPAVGIPAVGIPAVGIPAVGIPAVGIPAVGIPAVGIPAVGIPAVGIPAVGIPAVGIPAVGIPAVGIPAVGIPAVGIPAVGIPAVGIPAVGIPAVGIPAVGIPAVGIPAVGIPAVGIPAVGIPAVGIPAVGIPAVGIPAVGIPAVGIPAVGIPAVGIPAVGIPAVGIPAVGIPAVGIPAVGIPAVGIPAVGIPAVGIPAVGIPAVGIPAVGIPAVGIPAVGIPAVGIPAVGIPAVGIPAVGIPAVGIPAVGIPAVGIPAVGIPAVGIPAVGIPAVGIPAVGIPAVGIPAVGIPAVGIPAVGIPAVGIPAVGIPAVGIPAVGIPAVGIPAVGIPAVGIPAVGIPAVGIPAVGIPAVGIPAVGIPAVGIPAVGIPAVGIPAVGIPAVGIPAVGIPAVGIPGGGGSMMAEVQLVESGGGLVQPGGSLRLSCAASGFMFSRYAMSWVRQAPGKGPEWVSGISGSGGSTYYADSVKGRFTVSRDNSKNTLYLQMNSLRAEDTAVYYCARIFTHRSRGDVPDQTSFDYWGQGTLVTVSSGSASAPKLEEGEFSEARVSSELTQDPAVSVALGQTVRITCQGDSLRNFYASWYQQKPGQAPTLVIYGLSKRPSGIPDRFSASSSGNTASLTITGAQAEDEADYYCLLYYGGGQQGVFGGGTKLTVLRQPKAAPSVTLFPPSSAAAGSEQKLISEEDLNSHHHHHH
# Key:
# [1] = Circular dichroism (CD) spectra and thermal transition profile; format: physicochemical
# Experimental: The mathematical fitting of the CD data allowed the determination of the transition temperature (Tt) resulting from conformational change of EMP as the temperature is increased. The mathematical fitting of the CD data to the van't Hoff equation allowed the determination of the transition temperature (Tt) resulting from conformational change of EMP and EMP-scFv as the temperature is increased.
# Circular dichroism (CD) spectra were recorded on a Jasco J-810 spectropolarimeter equipped with a PFD-425S Peltier temperature control unit in 0.1 cm sealed quartz cells at concentrations of 7.5 μM (EMP), 8.4 μM (scFv) and 4.1 μM (EMP-scFv) in 50 mM sodium phosphate buffer, pH 7.4. Temperature/wavelength CD-scans were performed within the temperature range from 5° C. to 35° C. with equilibration for 10 min at each temperature. Spectra were obtained from 260 to 190 nm at a resolution of 0.5 nm and at a scanning speed of 50 nm/min. The CD curves represented the average of five measurements and were smoothed using the means-movement method on the interval analysis of the spectral manager program. CD data are reported as mean residue ellipticity ([θ], deg cm^2 dmol^−1). Thermal transition curves were plotted by the mean residue ellipticity as a function of temperature for the disappearance of the random coil and the appearance of the β-turn structure.
# [2] = test system: activated human platelets; experiment: Microscopic analysis of platelet aggregates; format: cell-based; conditions: 22° C.
# Experimental: For the microscopic analysis of platelet aggregates at different temperatures, non-diluted human PRP was placed onto a glass slide and ADP was added to a final concentration of 20 μM, in the presence and absence of EMP-scFv (50 μg/mL). Abciximab was used as a positive control at a concentration of 10 μg/mL. The experiments were conducted at 22° C. and 37° C. Phase contrast microscopy images were taken using an Olympus CKX41 microscope.
# [3] = biological target: T1, GPIIb/IIIa on mouse platelets (Mus musculus, UniProt O54890+Q9QUM0); experiment: Flow cytometry: inhibition of fibrinogen binding to mouse platelets; format: cell-based
# T1 construct: endogenous in cells
# T1 sequence (Q9QUM0 32-1033): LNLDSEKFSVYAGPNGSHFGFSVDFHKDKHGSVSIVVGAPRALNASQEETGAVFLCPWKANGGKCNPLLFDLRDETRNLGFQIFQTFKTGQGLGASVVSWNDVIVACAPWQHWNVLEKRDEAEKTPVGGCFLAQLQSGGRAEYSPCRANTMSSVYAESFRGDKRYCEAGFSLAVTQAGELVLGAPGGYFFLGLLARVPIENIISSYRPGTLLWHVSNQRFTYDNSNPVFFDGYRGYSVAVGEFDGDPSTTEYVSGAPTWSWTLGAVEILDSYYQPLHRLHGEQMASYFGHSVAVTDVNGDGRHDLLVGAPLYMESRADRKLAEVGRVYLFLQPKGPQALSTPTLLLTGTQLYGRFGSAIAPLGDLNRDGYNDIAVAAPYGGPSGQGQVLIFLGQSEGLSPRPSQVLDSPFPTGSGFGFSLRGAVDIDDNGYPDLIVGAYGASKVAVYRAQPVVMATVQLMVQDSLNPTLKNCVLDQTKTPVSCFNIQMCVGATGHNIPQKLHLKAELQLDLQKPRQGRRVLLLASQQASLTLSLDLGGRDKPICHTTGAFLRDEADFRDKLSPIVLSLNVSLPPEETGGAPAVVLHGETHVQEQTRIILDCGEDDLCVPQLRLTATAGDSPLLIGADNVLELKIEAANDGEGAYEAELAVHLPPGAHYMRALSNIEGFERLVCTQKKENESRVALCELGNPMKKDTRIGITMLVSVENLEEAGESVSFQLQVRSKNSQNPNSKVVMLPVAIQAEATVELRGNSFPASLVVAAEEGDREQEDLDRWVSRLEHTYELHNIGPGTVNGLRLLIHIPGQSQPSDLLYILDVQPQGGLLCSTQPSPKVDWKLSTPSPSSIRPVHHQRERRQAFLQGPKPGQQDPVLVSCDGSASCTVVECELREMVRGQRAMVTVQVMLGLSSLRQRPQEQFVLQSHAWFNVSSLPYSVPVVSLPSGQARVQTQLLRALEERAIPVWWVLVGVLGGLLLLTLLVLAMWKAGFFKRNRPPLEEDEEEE
# T1 sequence (O54890 26-787): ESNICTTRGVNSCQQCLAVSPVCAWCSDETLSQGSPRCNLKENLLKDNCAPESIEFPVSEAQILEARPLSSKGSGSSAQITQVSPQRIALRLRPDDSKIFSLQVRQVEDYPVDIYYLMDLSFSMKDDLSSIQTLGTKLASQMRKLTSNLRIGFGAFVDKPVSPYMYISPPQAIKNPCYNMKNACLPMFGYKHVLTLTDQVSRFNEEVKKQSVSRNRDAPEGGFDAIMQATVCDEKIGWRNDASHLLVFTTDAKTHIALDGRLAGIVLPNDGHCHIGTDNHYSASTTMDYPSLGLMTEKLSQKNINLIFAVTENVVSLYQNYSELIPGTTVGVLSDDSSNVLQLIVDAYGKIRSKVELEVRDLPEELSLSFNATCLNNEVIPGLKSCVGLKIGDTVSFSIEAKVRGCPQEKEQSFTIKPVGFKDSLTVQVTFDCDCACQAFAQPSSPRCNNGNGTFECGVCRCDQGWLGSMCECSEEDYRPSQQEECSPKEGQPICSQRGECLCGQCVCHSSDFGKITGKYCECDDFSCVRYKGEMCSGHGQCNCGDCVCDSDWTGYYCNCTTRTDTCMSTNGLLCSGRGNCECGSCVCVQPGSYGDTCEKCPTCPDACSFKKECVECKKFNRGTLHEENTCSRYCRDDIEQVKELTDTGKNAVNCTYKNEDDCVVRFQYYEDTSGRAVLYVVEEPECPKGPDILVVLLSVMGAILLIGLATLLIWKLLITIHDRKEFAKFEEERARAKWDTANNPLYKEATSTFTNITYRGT
# Experimental: (§1) Mouse blood was collected by intracardiac puncture with a 27-gauge needle from C57BL/6 mice and anticoagulated with non-fractionated heparin (20 U/mL). A volume of 50 μl was washed with 1 mL modified Tyrode's buffer (150 mM NaCl, 2.5 mM KCl, 1.2 mM NaHCO3, 0.1% BSA, 0.1% Glucose) and centrifuged at 1200×g for 6 min. The supernatant was discarded and the pellet was resuspended in 1 mL modified Tyrode's buffer containing 2 mM MgCl2 and 2 mM CaCl2.
# (§2) Human PRP was diluted 1/50 in modified Tyrode's buffer containing 2 mM MgCl2 and 2 mM CaCl2. Platelets were either activated by addition of 20 μM ADP, or non activated, followed by the incubation with 15 and 50 μg/mL EMP-scFv fusion protein or EMP at 22° C., 32° C. and at 37° C. for 15 min. Mouse platelets were either pre-activated for 10 min by addition of 0.1 U/mL thrombin (Enzyme Research Laboratories), or non activated, before the incubation with 15 and 50 μg/mL of EMP-scFv fusion protein at 22° C., 32° C. or 37° C. for 15 min. In both, human and mouse samples, EMP-scFv was detected via 15 min in-dark incubation with secondary antibody (Penta-His Alexa Fluor 488, Qiagen) directed against the His(6)-tag of the single-chain antibody.
# Fibrinogen binding to human activated platelets in the presence of EMP-scFv was determined with a polyclonal rabbit anti-human fibrinogen FITC-labelled antibody (DakoCytomation), while the effects of EMP-scFv on fibrinogen binding to mouse platelets were determined using FITC-conjugated rabbit anti-fibrinogen polyclonal antibody (Cemfret). Fluorescence detection was performed as described above. Samples were measured in a FACSCalibur® flow cytometer (Becton Dickinson), after fixation with 1× CellFIX® (Becton Dickinson).
# human platelets = experiment: Flow cytometry: platelet activation (PAC-1 binding, P-selectin expression); format: cell-based; conditions: human diluted PRP, 22° C.
# Experimental: Effects of EMP-scFv on platelet activation were addressed by incubating human diluted PRP with 15 and 50 μg/mL of EMP-scFv at 22° C. for 15 minutes, followed by the addition of either PAC-1 or CD62P antibodies and in-dark incubation for 15 minutes. The reactions were fixed and levels of PAC-1 binding and P-Selectin expression analysed in FACS.
# [4] = biological target: T1, GPIIb/IIIa on mouse platelets; experiment: Flow cytometry: binding to mouse platelets
# Experimental: as §1, §2
# [5] = test system: jugular venous thrombosis; experiment: Model of jugular venous thrombosis; format: in vivo, mouse; conditions: 28° C., 15 minutes after the injury, vs control group and 37° C.
# Experimental: C57BL/6 mice weighing from 20-25 g were used. Care and use of laboratory animals followed the national guidelines and were approved by the institutional animal care and ethics committees. Mice were anesthetized with isoflurane, following an intra-peritoneal injection with ketamine (100 mg/kg BW) and xylazine (20 mg/kg BW). The body core temperature was monitored with a digital thermometer, and controlled at either 28° C. or 37° C. with a thermal pad (Temperature Controller TR-200, Fine Science Tools Inc.). Reducing the body temperature to 28° C. was achieved by a gradual drop, at a rate of 0.3-0.4° C./min. The mice on the thermal pad were placed under a dissecting microscope (SZ61, Olympus). An incision of the skin was made directly on the top of trachea, and vessels used for experiment were bluntly isolated from surrounding tissues. […] After rinsing with normal saline, a nano-Doppler flow probe (0.5 VB, Transonic) was then positioned over the vessel and the blood flow rate (ml/min) was measured by a transit-time perivascular flow-meter (TS420, Transonic Systems Inc.). […] Jugular vein blood flow was recorded 15 minutes after induction of injury in mice pre-treated with EMP-scFv, eptifibatide or saline. The blood flow recorded at 1 minute was considered as the initial blood flow rate. […]
molecule,measurement,setting,value
B1,"transition temperature (Tt), disappearance of the random coil",[1]; CD data at 200 nm,15 °C
same,"transition temperature (Tt), appearance of the β-turn structure",[1]; CD data at 215 nm,28 °C
same,temperature at which structural change and hydrophobic collapse were completed,[1]; thermal transition curve,higher than 35 °C
same,aggregation of activated human platelets (microscopy),[2],inhibited aggregation
same,fibrinogen binding to activated mouse platelets,[3]; 22° C.,significant decrease
same,fibrinogen binding to activated mouse platelets,[3]; 32° C.,inhibit the binding of fibrinogen
same,fibrinogen binding to activated mouse platelets,[3]; 37° C.,did not affect
same,platelet activation: P-selectin expression,human platelets,no effect
same,platelet activation: binding of PAC-1,human platelets,no effect
same,binding to activated murine platelets,"[4]; 22° C., mouse whole blood",binds
same,binding to resting mouse platelets,[4]; either 22° C. or 37° C.,did not bind
same,percentage of initial blood flow,[5],significantly higher levels of blood flow
